Test results: doi:10.1101/2021.07.17.452491 (bioRxiv, 2021)

Assays:
[1] = target: T1, U-STAT1 (purified full-length unphosphorylated STAT1) (UniProt P42224 1-750); assay: ITC; settings: both partners purified
T1 construct: also called Full-length STAT1
T1 sequence (looked up): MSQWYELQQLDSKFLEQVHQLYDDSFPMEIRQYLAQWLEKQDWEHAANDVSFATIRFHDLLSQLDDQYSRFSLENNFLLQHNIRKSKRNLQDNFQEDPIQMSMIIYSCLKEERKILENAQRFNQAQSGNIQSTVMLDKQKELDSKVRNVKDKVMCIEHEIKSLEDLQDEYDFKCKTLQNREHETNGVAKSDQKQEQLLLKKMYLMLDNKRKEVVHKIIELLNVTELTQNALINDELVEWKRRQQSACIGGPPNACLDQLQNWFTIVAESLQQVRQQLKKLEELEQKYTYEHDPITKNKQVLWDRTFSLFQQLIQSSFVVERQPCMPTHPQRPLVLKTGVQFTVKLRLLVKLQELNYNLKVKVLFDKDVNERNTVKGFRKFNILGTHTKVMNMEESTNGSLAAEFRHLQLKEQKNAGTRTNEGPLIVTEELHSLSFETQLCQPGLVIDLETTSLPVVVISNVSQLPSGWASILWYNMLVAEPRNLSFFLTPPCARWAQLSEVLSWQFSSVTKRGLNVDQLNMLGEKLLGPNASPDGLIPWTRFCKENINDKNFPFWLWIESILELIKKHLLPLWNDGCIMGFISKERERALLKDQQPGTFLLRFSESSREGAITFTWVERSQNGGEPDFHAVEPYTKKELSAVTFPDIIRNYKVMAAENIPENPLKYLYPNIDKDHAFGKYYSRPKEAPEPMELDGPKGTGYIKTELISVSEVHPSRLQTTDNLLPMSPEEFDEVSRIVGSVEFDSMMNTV

[2] = target: T1, U-STAT1 (purified full-length …); assay: fluorescence polarisation; settings: both partners purified

B1: GB1-018 (natural protein)
chain: MSSKGGSSGGMWSVFIHGHDGSNKGSKTYTSGGGGMWGGGSSSGVKSGVNGGVKSGTGKI
B1 was tested, and the Kd [1] was 291 nM, the “stoichiometry N” value [1] was 1.02 and the IC50 [2] was 1260 nM.

B2: GB1-018^T2 (domain or fragment)
chain: MWSVFIHGHDGSNKGSKTYTS
For B2, the Kd [1] was 235 nM and the IC50 [2] was 930 nM.

B3: pIFNGR1 5-mer peptide (peptide)
peptide: YDKPH
notes: also called pYDKPH; pIFNGR 5-mer
With B3 the Kd [1] was 7600 nM.

B4: GB1-018^T3 (domain or fragment)
chain: MWSVFIHGHDGSNKGSK
For B4, the Kd [1] was > 10000 nM and the IC50 [2] was 17800 nM.
